# Experimental data published in patent US20020165132A1.
# Positions of bridges follow the written chain, without caps; N, C: chain ends. Non-standard residues stand in square brackets, D forms with d. No end group written: not given here. AlaL = alanine half of a lanthionine (monosulfide) bridge; Thr(ol) = C[C@@H](O)[C@H](N)CO; dValL = not defined here
# B1: Tyr-c[D-AlaL-Gly-Phe-L-AlaL]-NH2 (peptide)
# peptide: Y[dAlaL]GF[AlaL]-NH2
# modifications: bridge 2-5; not fully specified (bridges); printed as Tyr-c[D-AlaL-Gly-Phe-L-AlaL]-NH2
# B2: Tyr-c[D-AlaL-Gly-Phe-L-AlaL]-OH (peptide)
# peptide: Y[dAlaL]GF[AlaL]-OH
# modifications: bridge 2-5; not fully specified (bridges); printed as Tyr-c[D-AlaL-Gly-Phe-L-AlaL]-OH
# B3: Tyr-c[D-ValL-Gly-Phe-L-AlaL]-OMe (peptide)
# peptide: Y[dValL]GF[AlaL]-OMe
# modifications: thioether 2-5; reading uncertain; also: printed as Tyr-c[D-ValL-Gly-Phe-L-AlaL]-OMe
# B4: Tyr-c[D-ValL-Gly-Phe-D-AlaL]-OH (peptide)
# peptide: Y[dValL]GF[dAlaL]-OH
# modifications: thioether 2-5; reading uncertain; also: printed as Tyr-c[D-ValL-Gly-Phe-D-AlaL]-OH
# B5: Tyr-c[D-ValL-Gly-Phe-L-AlaL]-OH (peptide)
# peptide: Y[dValL]GF[AlaL]-OH
# modifications: thioether 2-5; reading uncertain; also: printed as Tyr-c[D-ValL-Gly-Phe-L-AlaL]-OH
# Biological target: δ-receptor (mouse vas deferens preparation) (mouse), P32300
# Sequence (P32300 whole entry, stated change not applied): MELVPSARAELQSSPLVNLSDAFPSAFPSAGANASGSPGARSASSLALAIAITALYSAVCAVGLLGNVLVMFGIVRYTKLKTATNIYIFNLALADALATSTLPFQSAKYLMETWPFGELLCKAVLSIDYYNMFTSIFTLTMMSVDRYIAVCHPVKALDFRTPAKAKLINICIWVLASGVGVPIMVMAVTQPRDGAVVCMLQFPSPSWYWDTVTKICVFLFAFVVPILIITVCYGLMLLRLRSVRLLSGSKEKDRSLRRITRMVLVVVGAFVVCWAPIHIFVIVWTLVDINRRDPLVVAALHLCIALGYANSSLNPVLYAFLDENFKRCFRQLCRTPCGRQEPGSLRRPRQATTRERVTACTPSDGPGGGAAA
# Experiment: cell-based or functional assay
row,Binder,MVD IC50 [nM]
1,B1,0.54
2,B2,0.16

# Biological target: SSTR2 Receptor (cloned somatostatin receptor)
# Sequence (P30875 whole entry): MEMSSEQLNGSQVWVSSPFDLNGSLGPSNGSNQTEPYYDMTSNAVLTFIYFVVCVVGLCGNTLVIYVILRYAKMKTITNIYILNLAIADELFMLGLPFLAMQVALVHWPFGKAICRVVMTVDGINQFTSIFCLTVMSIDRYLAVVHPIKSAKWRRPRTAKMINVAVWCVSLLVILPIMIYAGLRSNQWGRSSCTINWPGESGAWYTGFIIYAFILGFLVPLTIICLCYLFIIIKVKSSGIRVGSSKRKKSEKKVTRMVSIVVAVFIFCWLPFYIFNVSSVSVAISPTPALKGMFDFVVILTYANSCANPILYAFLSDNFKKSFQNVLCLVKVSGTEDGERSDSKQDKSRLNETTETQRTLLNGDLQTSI
# Experiment: inhibition of radioligand binding to cloned SSTR2
row,Binder,IC50 [nM]
1,"AGCKNFFWKTFTSC (peptide, UniProt P61278 103-116, looked up, disulfide 3-14 (inferred)) [Somatostatin-14]",0.28
2,H-[dF][AlaL]F[dW]KT[AlaL]T-NH2 (thioether 2-7) [H-D-Phe-c[AlaLPhe-D-Trp-Lys-Thr-AlaL]-Thr-NH2],10
3,[dF]CF[dW]KTC[Thr(ol)] (disulfide 2-7) [Sandostatin],2.4
4,H-[dF][AlaL]F[dW]KT[AlaL][Thr(ol)] (thioether 2-7) [H-D-Phe-c[AlaLPhe-D-Trp-Lys-Thr-AlaL]-Thr-ol],5

# Biological target: SSTR4 Receptor (cloned somatostatin receptor)
# Sequence (P30938 whole entry): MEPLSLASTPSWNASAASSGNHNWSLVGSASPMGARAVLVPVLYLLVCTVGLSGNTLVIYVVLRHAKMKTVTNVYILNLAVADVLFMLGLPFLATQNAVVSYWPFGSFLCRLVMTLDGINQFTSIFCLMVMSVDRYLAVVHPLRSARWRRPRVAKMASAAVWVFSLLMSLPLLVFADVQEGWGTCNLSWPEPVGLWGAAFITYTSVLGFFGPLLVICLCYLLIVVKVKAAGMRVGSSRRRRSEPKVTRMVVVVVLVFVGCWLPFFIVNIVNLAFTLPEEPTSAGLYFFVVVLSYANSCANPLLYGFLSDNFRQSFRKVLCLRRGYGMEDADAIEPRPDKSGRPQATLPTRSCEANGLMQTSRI
# Experiment: inhibition of radioligand binding to cloned SSTR4
row,Binder,IC50 [nM]
1,"AGCKNFFWKTFTSC (peptide, UniProt P61278 103-116, looked up, disulfide 3-14 (inferred)) [Somatostatin-14]",0.86
2,H-[dF][AlaL]F[dW]KT[AlaL]T-NH2 (thioether 2-7) [H-D-Phe-c[AlaLPhe-D-Trp-Lys-Thr-AlaL]-Thr-NH2],0.5
3,H-[dF][AlaL]F[dW]KT[AlaL][Thr(ol)] (thioether 2-7) [H-D-Phe-c[AlaLPhe-D-Trp-Lys-Thr-AlaL]-Thr-ol],1
4,H-[dF][AlaL]F[dW]KT[AlaL]-OH (thioether 2-7) [H-D-Phe-c[AlaLPhe-D-Trp-Lys-Thr-AlaL]-OH],500

# Biological target: δ-receptor (mouse vas deferens preparation) (mouse) (UniProt P32300)
# Sequence (P32300 whole entry, stated change not applied): as the sequence (P32300 whole entry, stated change not applied) above
# Experiment: cell-based or functional assay
row,Binder,MVD IC50 [nM]
1,B3,3.65
2,Y[dAlaL]GF[dAlaL]-NH2 (thioether 2-5) [Tyr-c[D-AlaL-Gly-Phe-D-AlaL]-NH2],1.67

# Biological target: µ-receptor (guinea pig ileum preparation) (guinea pig)
# Experiment: cell-based or functional assay
row,Binder,GPI IC50 [nM]
1,B3,88.1
2,B4,535
3,Y[dAlaL]GF[dAlaL]-NH2 (thioether 2-5) [Tyr-c[D-AlaL-Gly-Phe-D-AlaL]-NH2],1.67
4,B5,39
